Laboratory results taken from the DeepSol protein solubility set.

experiment: soluble on expression in E. coli; label from the status in PepcDB or PDB records

Sequence | soluble on expression in E. coli
MGHHHHHHSHMIDILDVKSRATIQDLGRFGLRRFGISHCGAMDKLALRAGNILLGNAENVPAIEVPLGGITLQFQQDMNFCVTGAFYEMMLDDKPVFAYWRYQVRAGQILKMARAKIGMYGYLCVQGGFVLPQALNSCSTDLRAQIGGIEGRCLQAGDQLQTANDHILRSEIGIAPIPLRDVIRALPSSEYQAFKRKSQYYWWRNEWTLQSNSDRMGYRFQGQTLELKQPLEMLSHAIQFGSVQVPPSGQPIILMADAQTTGGYPKIANVIDADLGALAQVRLGSTIKFEAVSLQEAAKLRRKNEIYLDQIRRIVDEKN | not soluble
MYKHILVPVDLNEQGFADKAVQLAVWHAKHSNAEIHLLNVLPGIHMSMVATYFPKDAAAQMKNDVRAQLKAFAEKHIAEEVVYKLHIAEGKPYATILDYAERLGADLIVMPSHKRSRIDKVMLGSVASKVVENSPINVMVVKPQG | not soluble
WSQNEGKSVIPVQITKENSAYLADALLLDTSKEAQDAVENHSMMLSAKELFPVLETMKQIRQYGDSTDKNYGYRDEGSMFNSGNTAMYINGVWASKLIDEKIDACYAPFPGKNGSTIASSSVCLGYIVGNTGNQETMDASVEFLKYMLSEKVQKRILLETGQMPSSPKIHLEEYKEQIPRMCNAVEAIRGADRIIEVPDNLWTADQLENFRNQIMEVLNGTLDEEQFCTNLYQ | not soluble
MIRTVMDFKFVLRLLEANQFENEVVEYKKNNKDFIVLGKNISALSNTAALLGIDKAYIIFGIEDGTLNIVGTNFKPKQEKKGNEELESWLHKVLKPNIEFKIHEITEKEIRLVVFEIEATKISPIKFEEKAYIRIGSNRKELDKYPEKEKKLWQVLSGFSFENEIAKSNLNIQDIYDLLDYSKCFDMLDISYDNYSSDEYIIEKLIEHGLVKNLNDSFAITNLGAILFAKDLTKFKGLNRKRIRFIRYQGKNKIHTLEELEGRKGYAIGFQGLISYIMQYVPKNEVIENAIRKDTTLYPEIAIRELVANAIIHQDFTINGRNPMIEMYSDRIEITNNGKSLIDIKRLIDMPSKSRNDKLANLMRIMGICEERGSGVDKVIDSVEAYQLPAPDFINNEDYFQAILFSHMPLEDMTKQDRIRATYQHCCLKWASREAMTNASLRARFKIGDKQHSKASKIISDTLEAGLIKQQDPENKSTKHVKYVPFFV | not soluble
MAAHFDLTDLQLLVHIGDWHSLTRGAEKSHLSLPAASTRVKNLEEHFGTQLLYRTSQGVTLTPSGEAMLRHARTVMQQVEQMRGDMQEFARGVKGHVRVLANTTAMTEFMPAVLARYLAAHPDVNVELRERLSYLVVRAVADGSADIGVVAGCAPDQKLQFIPYRKDRLVVVTPAGHRLAAEESVAFADTLADDYVGLSEWSAIHPFLVQAAASLGRTFKFRVEVGNFEAVCRMIESGVGIGVIPESAALRYARNLDIALVGLTDEWAVRELQICVKNLDSLPVFARELVETLVADGDAAG | soluble
MDIHVLSYGLGNQLSQYAFFINRRQLMQRAYAFYAFKQHNGYELDRIFGLKEGLPWYLQFVRVVFRLGISRRFYSKRTADFVLSLFRIKVIDEAYNYEFDPSLLKPWFGIRILYGGWHDSRYFHPSEAAVRTAFSFPPLDDVNDAILQQIDAVYGVSIHVRRGDYLKGINSNLFGGIATLEYYRNAIGWAITYCKHRSLEIKFYVFSDDIDWCKQNLGLRDAVYVSGNSKTDSWKDILLMSHCRANIIANSTFSWWAAWLNQQPNKVVICPTKFINTDSPNQTIYPAAWHQIEGLEHHHHHH | not soluble
MKTNFKQKIIEQARSEGLQVTALREQVLDIVLQQSGVIKAYNVLSQMQQQSEGVLAPPTAYRALDFWAEQGVLHKVAAVNGYILCSHAQHECDDHCHDHEEAEAHHSAFILVCTECGTADEQTLSHEWAALRAGVAESGFALKEEHVVLTGICKKCQQ | not soluble
MGSDKIHHHHHHMVMDHDIYFGYQRPRPTEYVQFANFDSRQLNLYLAGRIANNPPTKEVTESIGYMDGIIDFSDILGRRIFDNRTIEYQFKALNINYHDRKLLEQKCKRLLLIPMRQPIYDSHDLPFYWFGKASSVTANDDHVNNVLEITVQFNVSPYALRKGQFDDIWDNFSLETGYAQFTKYSVKGTKKISLYNDSDLKSRLKVICQNDMTINGKYKYTKNYQDNPNFRLEPGINDLTVNGNGDIEFQWESEVML | not soluble
MGSDKIHHHHHHMGAGELLQDWRVHALRIEDEVSRVVIGQPQTIRLITVALFARGHVLLEGGVGVGKTTVLRAFARVVGGEFERVEGTIDLMPGDLVYHTYVDAEGRPRIDPGPLLRHGERLTTFFFNEINRARPQVQSLLLRAMAERSVWAFDREYRFPHMTVFADRNKVEKEETFELASAARDRFLFELGMPTPTEPDVRRSLVFDAAFHDVDSLLARLPPAIVQWEQLNQVGAAIQESVQSSETIERYVLDIWQATETPQRFGIALDGVDMDRLILAGASPRGMSALLRAARVVAWLAGRSHLVPEDIHAVLMPALGHRVFFTPIYELRRQELAEALMTQIMNRLAVP | not soluble
MGSDKIHHHHHHMKQDTIHINGLSIGYHSKSSTKLVAKGIHSTIYSGELTCLLGANGVGKSTLLRTLSAFQPKLDGEILVLGKDIDTYSDKELSTTIGVVLTDKCEIRNMLVRELVGMGRSPYTGFWGKLSKDDKRIVEESIALVRIEELASRMVHTLSDGERQKVMIAKALAQETPVIYLDEPTAFLDFPSKVEIMQLLHHLTRKTNKTIFMSTHDLELALQISDKIWLMDKANGISTGTPEDLALSGHLSNFFARKGIVFDKDTGLFRIDNQFSRQIRLVGHGQKYAMVRKGLQRNGILANREVESNIWIETGDLKTTHFIIHETSGGTYITQTIEELLAYFDTEKS | not soluble
MRSAIAAPILFLLVSFFVQECESVGFAPELYCGLENCYDVLEVNREEFDKQKLAKAYRALARKHHPDRVKNKEEKLLAEERFRVIATAYETLKDDEAKTNYDYYLDHPDQRFYNYYQYYRLRAAPKVDL | not soluble
GSAPAKEPSVNTALVPQLSTISRALTPSPVMVLENIEPEIVYAGYDSSKPDTAENLLSTLNRLAGKQMIQVVKWAKVLPGFKNLPLEDQITLIQYSWMSLSSFALSWRSYKHTNSQFLYFAPDLVFNEEKMHQSAMYELCQGMHQISLQFVRLQLTFEEYTIMKVLLLLSTIPKDGLKSQAAFEEMRTNYIKELRKMVTKCPNNSGQSWQRFYQLTKLLDSMHDLVSDLLEFCFYTFRESHALKVEFPAMLVEIISDQLPKVESGNAKPLYFHRK | soluble
MDILKQLQSSTNLTPNVLARLAIALSLLSKEPIESFDSDTNGLEFNRNTLTGEYDFVYKALIAQQLGRPITDDEYFPSLIKKHLDRGAKWLENEYKYAGNYEKLIKGLAHFELEMIR | not soluble
MRGSHHHHHHTDPALRAMRLVQLSRHSIAFPSPEGALREPNGLLALGGDLSPARLLMAYQRGIFPWFSPGDPILWWSPDPRAVLWPESLHISRSMKRFHKRSPYRVTMNYAFGQVIEGCASDREEGTWITRGVVEAYHRLHELGHAHSIEVWREDELVGGMYGVAQGTLFCGESMFSRMENASKTALLVFCEEFIGHGGKLIDCQVLNDHTASLGACEIPRRDYLNYLNQMRLGRLPNNFWVPRCLFSPQEGLCGR | soluble
MSLDAHNFFKAGPYAPLAARMRPQSLDEVVGQRHLLDSGKPLQRLIAGSGDASVILYGPPGTGKTTIASLISAGTGHEFVGLSALNSGVKEIREVIDQARRNLIHGKRTVLFIDEVHRFSKTQQDALLAAVENRTVLLVAATTENPSFSVVAPLLSRSLILQLKPLTHDDIKTVLLHALQDKRGLDNRITISDEALEQLVLLSGGDARRSLTYLEAASESLADGEELTPEIIRHNVDKAIVRYDRDGDQHYDVVSAFIKSMRGSDVDAALHYLARMIDAGEDPRFIARRLVIHASEDVGMADPQALSVAVAASQAVALIGMPEARINLAQATIHLATAPKSNAVITAIDAALADVKQGKTGPVPAHLRDGHYAGAKQLGNAVGYKYPHDDPRGIVEQQYIPNGLEDVVYYRPSEHGAEQRIESYLGKLRRIVRGQREGHHHHHH | soluble
